# Measured values: publication PMC10276142, “Protocol to measure protein-RNA binding using double filter-binding assays followed by phosphorimaging or high-throughput sequencing”
# Target: AGO2 (miR-449a RISC) (mouse, UniProt Q8CJG0 1-860)
# Experiment: filter binding; titration regime, 0.5 nM target RNA (2.5 nM stock, 1 in 5), 37 C 1 h; stoichiometric point [RISC]/[target] 1.3 (77% active); no KD reported; Double filter binding (nitrocellulose/nylon), 5 uL reactions, 37 C for 1 h; compositions of Storage, Dilution and Reaction Mix buffers not given in material
# Conditions: protein: recombinant; tags: FLAG; label: 5' 32P on target; guide:target seed pairing, guide nt 2-8 plus A opposite nt 1; rest of target single-stranded
# AGO2 (miR-449a RISC), sequence (Q8CJG0 whole entry): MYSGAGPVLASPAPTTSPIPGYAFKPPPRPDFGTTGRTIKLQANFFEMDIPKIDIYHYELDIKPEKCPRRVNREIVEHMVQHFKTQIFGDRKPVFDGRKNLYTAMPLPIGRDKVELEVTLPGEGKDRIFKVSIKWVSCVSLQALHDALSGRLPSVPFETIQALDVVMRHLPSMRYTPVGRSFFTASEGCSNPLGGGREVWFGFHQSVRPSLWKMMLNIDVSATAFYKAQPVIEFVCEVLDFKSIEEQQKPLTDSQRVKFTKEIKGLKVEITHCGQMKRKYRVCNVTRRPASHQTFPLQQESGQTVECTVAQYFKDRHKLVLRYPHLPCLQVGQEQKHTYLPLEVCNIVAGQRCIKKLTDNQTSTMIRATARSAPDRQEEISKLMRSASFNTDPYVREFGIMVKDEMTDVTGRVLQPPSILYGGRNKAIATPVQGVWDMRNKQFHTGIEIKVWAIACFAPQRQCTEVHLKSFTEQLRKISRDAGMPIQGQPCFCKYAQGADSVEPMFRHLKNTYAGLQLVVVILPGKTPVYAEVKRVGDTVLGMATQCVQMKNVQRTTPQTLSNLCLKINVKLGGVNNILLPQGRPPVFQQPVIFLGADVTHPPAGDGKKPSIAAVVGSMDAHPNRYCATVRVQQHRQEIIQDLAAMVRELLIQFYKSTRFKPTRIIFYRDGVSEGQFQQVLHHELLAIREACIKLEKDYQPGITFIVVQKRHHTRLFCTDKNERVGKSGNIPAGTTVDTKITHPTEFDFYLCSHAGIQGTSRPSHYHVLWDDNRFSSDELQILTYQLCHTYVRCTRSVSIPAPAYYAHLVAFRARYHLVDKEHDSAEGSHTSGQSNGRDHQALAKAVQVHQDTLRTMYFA
binder,measurement,value
"miR-449a guide / 8mer-site target RNA (mixed, guide 5'-phosphate; target 5' 32P-phosphate) RNA 1: UGGCAGUGUAUUGUUAGCUGGU RNA 2: AUGAAAUCGAUAUCUAUCACUGCCAACU",binding result,binds
